The results in this text go back to patent US11779592B2, “Inhibition of NGLY1 for the treatment of cancer” (University of North Texas Health Science Center, priority 2017, dated 2023).

Series [1] deals with U-251MG glioblastoma cells. Put plainly: Cell morphology of U-251MG cells with NGLY1 knockdown. It counts as cell-based.
Another series relates to NGLY1. The series can be described thus: NGLY1 expression in stable clones of melanoma cells (immunoblotting). It counts as cell-based, human. The settings on record: stable clones of MALME3M, UACC257 and SK-MEL-2 cells, 48-hour treatment of dox. From the text:
These NGLY1-targeting shRNA sequences and a scrambled (non-targeting) shRNA sequence were cloned into doxycycline (dox)-inducible, polycistronic green fluorescence protein (GFP)-shRNA expression constructs (a pZIP inducible lentiviral vector, TransOMIC). Stable clones have been generated with the shRNA expression constructs in multiple human melanoma cell lines, including MALME3M, UACC257, SK-MEL-2, and COLO829 melanoma cells. […] Similar knockdown effects were found in the stable clones of other melanoma cells with this particular NGLY1 shRNA sequence. […] Similar to human normal fibroblasts, normal melanocytes (FIG. 5D) and keratinocytes appeared to well tolerate NGLY1 knockdown and show no sign of increased cell death. In addition, SK-MEL-2, MALME3M cells that express inducible NGLY1 shRNA presented significant apoptosis, compared to their scrambled RNA-expressing counterparts. The expression of exogenous human NGLY1 in melanoma cells attenuated NGLY1-targeting shRNA-induced apoptosis (FIG. 5E).
(§1) The knockdown of NGLY1 expression in melanoma cells was achieved by the transduction of pZIP-TRE3GS lentiviral expression vectors that carry two independent shRNA sequences (Below; TransOMIC Technologies, Huntsville, AL). […] The expression of the shRNA sequences and an open reading frame of the ZsGreen reporter is driven by the TRE3GS doxycycline-inducible promoter. […]

In the next series the test system is HepG2 liver cancer cells. The series can be described thus: Cell morphology of HepG2 cells with NGLY1 knockdown. The format is cell-based.
In another series the test system is UACC257 cells. Put plainly: Cell morphology of UACC257 stable clones with dox-inducible shRNA. The format is cell-based, human. The following applies: 2 μM dox for 72 hours. The procedure:
(FIG. 5A) The doxycycline (dox)-inducible pZIP-TRE3GS expression vector of non-targeting shRNA and NGLY1-targeting shRNA sequences. (FIG. 5B) The stable clones of UACC257 cells with dox-inducible shRNA. […] Cells with induced non-targeting (scramble)-shRNA maintain a morphology similar to the cells before dox induction. Cells were imaged after the treatment of 2 μM dox for 72 hours. BF: bright field. ZsGreen: green fluorescence protein. […] (FIG. 5E) The expression of human NGLY1-FLAG in SK-MEL-2 (SK) cells attenuates NGLY1-targeting shRNA-induced apoptosis. EV: empty vector, NGLY1-F: NGLY1-FLAG expression vector. […] All data were presented as mean±standard deviation (n=3, *P<0.05, […]). […] The cell viability curves of combinatorial treatment were plotted according to the doses of dox used in the treatment. Combination indexes were calculated using Calcusyn software. A combination index value <1 was considered synergistic. A combination index value <0.2 was considered highly synergistic. […]
as §1

Another series deals with SK-MEL-2 tumors. Put plainly: Xenograft tumor model with SK-MEL-2 cells carrying inducible shRNA. The format is in vivo, mice. An excerpt:
(FIG. 14A) A schematic illustration of animal study design to test the in vivo antitumor efficacy of NGLY1 suppression in melanoma. (FIG. 14B) The volume changes of xenograted SK-MEL-2 tumors with the induction of NT-shRNA (n=10) and NGLY1-shRNA645 (n=8) for 35 days. Tumors were harvested at the end of the study for Western blotting analysis. Bars: median tumor volumes at the indicated time points. […] (FIG. 14C) The expression of NGLY1, GADD153, IRF3, and GFP (ZsGreen) proteins in selected tumors was analyzed by Western blotting. (FIG. 14D) The enhanced expression of IL-29 in the tumor tissues with NGLY1 knockdown was detected by immunofluorescence staining.
Six-week-old female NOD.CB17-Prkdc^scid/J mice (The Jackson Laboratory, Bar Harbor, ME) were group-housed under conditions of constant photoperiod (12 hours light: 12 hours dark) with ad libitum access to sterilized food and water. Since the animal work in this study was completed using an animal study service provided by the translational core laboratory at the University of Maryland, Baltimore, all experimental procedures and protocols utilizing mice were approved by the Institutional Animal Care and Use Committee at the University of Maryland. […] Tumors were measured weekly using calipers and their volumes calculated using a standard formula: width^2×length×0.52. Body weights were measured weekly. […]

B1: NGLY1-shRNA645: NGLY1-targeting shRNA sequence (SEQ ID NO: 5), dox-inducible lentiviral vector; used in the xenograft study (nucleic acid)
DNA: CCGAGUUUCAAAUAACAAUCAAUAGUGAAGCCACAGAUGUAUUGAUUGUUAUUUGAAACUCGAU
Turning to B1, the cell morphology entry is listed as “morphology of apoptosis” in series [1], “morphology of apoptosis” in the series on HepG2 liver cancer cells and “morphological features of apoptosis” in the series with UACC257 cells. In addition, in the series on NGLY1, the “expression of NGLY1” value was “largely suppressed”. Further, the “tumors that showed regression at the end of the study” value in the series on SK-MEL-2 tumors (after size increase during the initial 3-4 weeks of dox treatment) is recorded as “three out of eight”. The “growth of melanoma tumors” value in the series with SK-MEL-2 tumors (dox-induced knockdown, 5 weeks) is listed as “impeded”.
